# Assay results: patent US20220347324A1 (Bristol-Myers Squibb, published 2022)
# B1: ADX_5322_A02 (designed binder)
# chain: MGVSDVPRDLEVVAATPTSLLISWSYDGPIDRYYRITYGETGGNSPVQEFTVPPDQKTATISGLKPGVDYTITVYAVRLEEAHYNREFPISINYRTPCHHHHHH
# notes: C-terminus NYRTPCH6
# B2: 64Cu-A02-NODAGA (designed binder)
# chain: GVSDVPRDLEVVAATPTSLLISWSYDGPIDRYYRITYGETGGNSPVQEFTVPPDQKTATISGLKPGVDYTITVYAVRLEEAHYNREFPISINYRTPC
# modifications: C-terminal cysteine linked by maleimide to NODAGA chelating 64Cu
# notes: A02 with C-terminal PC; also called NODAGA-64Cu-labeled A02 anti-PD-L1 Adnectin
# B3: [18F]-A02-4PEG-DBCO-FPPEGA (designed binder)
# chain: B2 chain
# modifications: C-terminal cysteine linked to Maleamide-DBCO-FFP(18F)
# notes: also called 18F-DBCO-A02 anti-PD-L1 Adnectin; ADX_5322_A02-Mal-DBCO-FFPF18
# B4: 64Cu-E01-NODAGA (designed binder)
# chain: GVSDVPRDLEVVAATPTSLLISWRAQLSPSFYYRITYGETGGNSPVQEFTVPNDVMTATISGLKPGVDYTITVYAVTTHGVYFYSPISINYRTPC
# modifications: C-terminal cysteine linked by maleimide to NODAGA chelating 64Cu
# notes: E01 with C-terminal PC (ADX_5417_E01 w/ N leader and modified C-terminus); also called 64Cu-E01 anti-PD-L1 Adnectin
# Tests used:
# [1] = target: T1, human PD-L1 expressed on cells (hPD-L1-positive L2987 cells, L2987 xenografts, human lung tumor tissue) (human, UniProt Q9NZQ7 19-290); test: cell binding to human PD-L1 positive L2987 cells; Adnectin marked (Cys-Capped)
# T1 construct: whole, on cells; also called hPD-L1(+) L2987; PD-L1 positive cells L2987
# [2] = target: T1, human PD-L1 expressed on cells …; test: in vivo PET in mice, co-injected with 3 mg/kg unlabeled A02 Adnectin as competitor
# Description: (§1) A 10-minute transmission image was first acquired using a ⁵⁷Co point source for the purpose of attenuation correction of the final PET images. Following the transmission scan, radiotracer solutions were administered via the previously installed tail vein catheters and a 2 hour emission image was acquired. […] All injections were formulated in 200 μL saline prior to injection. Exact injected doses were calculated by taking direct measurements of the formulated dose and subtracting the radioactivity remaining in the syringe and the tail vein catheter.
# (§2) Images were reconstructed using a maximum a posteriori (MAP) algorithm with attenuation correction using the collected transmission images and corrected for radioisotope decay. In the final images, regions of interest (ROIs) were drawn around the tumor boundary using ASIPro software (Siemens Preclinical Solutions). Time-activity curves were calculated for each ROI to yield a quantitative view of radiotracer within the tumor volume over the course of the 2 hour emission image. For final comparison, individual time-activity curves were normalized based on the injected radiotracer dose for each specific animal. Radiotracer uptake was compared across tumors using the final 10 minutes of each time-activity curve (1 hour 50 minutes-2h post-radiotracer injection).
# [3] = target: T1, human PD-L1 expressed on cells …; test: in vivo PET in mice with bilateral xenografts, last 10 min of a 2 h scan
# Description: as §1, §2
# [4] = target: T1, human PD-L1 expressed on cells …; test: in vivo PET in mice with bilateral xenografts
# Source text: Briefly, nude mice were subcutaneously implanted bilaterally with HT-29 and L2987 cells. Once tumors reached approximately 200-300 mm³, animals were selected for imaging. Mice were anesthetized with 2% isoflurane in oxygen and placed onto the imaging bed of a Focus 120 PET imaging system (Siemens Preclinical Solutions). […] A 10-minute transmission image was then collected using a ⁵⁷Co point source for use as attenuation correction. Images were reconstructed using a 3D maximum a posteriori algorithm with attenuation correction using AsiPro software (Siemens Preclinical Solutions).
# [5] = target: T1, human PD-L1 expressed on cells …; test: radiotracer cell binding, 1 h on ice, gamma counter
# Description: After the incubation period, cell samples were centrifuged at 200×g and the supernatant was discarded. Cell pellets were resuspended in 1 mL PBS+0.5% BSA and the wash procedure repeated for a total of 3 washes. Following the final wash, cells were again centrifuged at 200×g and the supernatant was discarded. The radioactivity of the remaining cell pellets was then measured by gamma counter.
binder,measurement,setting,value
B1,EC50,[1],0.43 nM
B2,"radiotracer uptake, hPD-L1(+) L2987 xenografts against hPD-L1(-) HT-29 xenografts, with cold competitor",[2],1.04 fold
same,"radiotracer uptake, hPD-L1(+) L2987 xenografts against hPD-L1(-) HT-29 xenografts",[3],3.05 fold
B3,"maximum radiotracer uptake ratio, hPD-L1(+) L2987 against hPD-L1(-) HT-29 xenografts",[4],3.53 ratio
B4,"fold cell associated radioactivity, hPD-L1-positive L2987 cells against hPD-L1-negative HT-29 cells",[5],44.6 fold
